Data published in US12092631B2, “Optical thromboelastography systems and methods” (The General Hospital Corporation, priority 2014, dated 2024).

Test system: human blood samples
Assay: OTEG fibrinolysis measurement (LY15) in human blood samples spiked with tPA
Conditions: human blood spiked with 0.5 μg/ml tPA (14% at 0 μg/ml), three repeated measurements, FIG. 13
Procedure: Dilutional coagulopathy is generated by serially diluting whole blood (30-60%) with phosphate buffer saline (PBS) solution to vary MA (FIGS. 9A, 9B, 9C). Diluted blood is treated with low to high doses of fibrinogen concentrate (80-160 μL) which also varies MA. Undiluted blood is treated with unfractionated heparin to reach a maximum concentration of 1 U/ml to vary PT, R and K times. To induce fibrinolysis, blood is spiked with varying concentrations of tissue plasminogen activator (tPA) to alter % LY (FIGS. 10A, 10B). Thrombocytopenia or low platelet count is achieved by blood centrifugation, and substitution of platelet-rich with platelet-poor plasma at varying doses, followed by subsequent reconstitution. […]
FIGS. 12, 12B, 12C, 12D, and 12E illustrate the effect of tissue plasminogen activator (tPA) on blood coagulation parameters (Clot Reaction Time, Clotting Time, Clot Progression Rate, Clot Stiffness, and Fibrinolysis) measured with OTEG according to an embodiment of the invention and TEG. […]
FIG. 13 illustrates reproducibility in OTEG-based fibrinolysis measurement of the parameter LY15 in human blood samples spiked with 0-0.5 μg/ml of tPA. The concentration of tPA from 0 to 0.5 μg/ml increases the fibrinolysis from 14% to 51%, which can be successfully detected with an embodiment of the invention. […]

B1: tPA: tissue plasminogen activator, spiked into blood to activate fibrinolysis (protein, UniProt P00750 36-562, looked up)
Tissue-type plasminogen …: SYQVICRDEKTQMIYQQHQSWLRPVLRSNRVEYCWCNSGRAQCHSVPVKSCSEPRCFNGGTCQQALYFSDFVCQCPEGFAGKCCEIDTRATCYEDQGISYRGTWSTAESGAECTNWNSSALAQKPYSGRRPDAIRLGLGNHNYCRNPDRDSKPWCYVFKAGKYSSEFCSTPACSEGNSDCYFGNGSAYRGTHSLTESGASCLPWNSMILIGKVYTAQNPSAQALGLGKHNYCRNPDGDAKPWCHVLKNRRLTWEYCDVPSCSTCGLRQYSQPQFRIKGGLFADIASHPWQAAIFAKHRRSPGERFLCGGILISSCWILSAAHCFQERFPPHHLTVILGRTYRVVPGEEEQKFEVEKYIVHKEFDDDTYDNDIALLQLKSDSSRCAQESSVVRTVCLPPADLQLPDWTECELSGYGKHEALSPFYSERLKEAHVRLYPSSRCTSQHLLNRTVTDNMLCAGDTRSGGPQANLHDACQGDSGGPLVCLNDGRMTLVGIISWGLGCGQKDVPGVYTKVTNYLDWIRDNMRP
fibrinolysis (LY15): 51%
